Test results published in the nanobody polyreactivity screen of Harvey et al. (2022).

test: yeast display, Sf9 membrane polyspecificity reagent, FACS + sequencing; frameworks hold sequencing errors
Procedure, shortened: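 Galactose-induced (36–48 hours) yeast carrying a synthetic nanobody display library were exposed to 10% biotinylated, detergent-solubilized Sf9 membrane reagent at 4 °C for 1 hour. FACS followed streptavidin microbead enrichment, using low and high (top ~1%) gates for expression (anti-HA) and reagent binding (streptavidin). Colony PCR, MiSeq 2 × 250 sequencing and CDR-length filtering followed. Labels for polyreactivity reflect the gate of origin.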

Sequence | polyreactivity (PSR sort gate)
QDHLVESGGGLVQAGGSLRLSCAASGISFSVNAMGWSRQAPGKERELVASISSGGSTNYADSVTGRFTISRDNAKNTVYLQMNSLNPEDTAVSYCAAGYWNDFDWGQGTQVTVSS | low polyreactivity
QDHLVESGGGLVQAGGSLRLSCAASGSTFGWYAMGWYRHAPGKERELVAVITRGGSTYYADSVKGHFTITLDNAKNTVYLQMNSLKPEDTAVYFCAARYRLPPYYYWGHGTQVTVSS | high polyreactivity
QDHLVESGGGLVQAGGSLRLSCAASRRTLLRYAMGWYRQAPGKERELVAAISSSGGRTYYADSVKGRFTISRDNAKNTVYLQMNSLKPEDTAVYYCAAKSSYVGHDYWGQGTQVTVSS | high polyreactivity
QDHLVESGGGLVQAGGSLRLSCSASGSNFRSYAMGWYRQAPGKERELVAAITWSGGRTYYADSVKGRFTISRDNAKNTVYLQMNSLKPEDTAVYYCNAVYLAYGGAYWGQGTQVTVSS | high polyreactivity
QDHLVESGGGLVQAGGSLRLTCAASGSIFADYTMGWYRQATGKEMELVAAINNRDGGTYYADSVKGRFTISRDNAKNTVYLEMNSLKPEDTAVYYCTKQVDLSGQWDFWYGYYTYDYWGQGTQLTVSS | low polyreactivity
QDHLVESGGGLVQAGGSLRVSCAASGLVYGQYAMGWYRPAPGKERELVAAINWSGGRTYYADSVKGRFTISRDNAKNTVYLQMNSLKPEDTAVYYCAADDPQDQDYENNYWGQGTQVNVSS | high polyreactivity
QDKLVESGGGLVQAGGSLRLICAASGFTFNRYALGWYRKAPGKERELVAGITGGGSTKYADSVKGRFTISRDNAKNTVYLQMNSLKPEDTSVYYCNASGYSYGARYYYWGQGTQVTVSS | high polyreactivity
QDLLVESGAGLVQAGGSVRLSCAASGRIVYTYAMAWYRQAPGIERELVAVISSGGSTYYADSVKGRFTNSRDNAKNTVYLQMNSLTPEDTAVYYCAAYGTKWGRGFYITGYGYWGQGTQVTVSS | low polyreactivity
QDLLVESGGGLVQAGGSLRLSCAASGYTFGNNAMGWYRQAPGKERELVATISGGGRTKYADSVKGRFTISRDNAKNTVYLQMYSLKPEDTAVYYCNVVQTYYRGSYIYIKYGYWGQGTQVTVSS | high polyreactivity
QDQHVESAGGVVQTGGSLRLSGAATGSIFGEYAMGWYRQPPGQEREFVADITRSDGSTYYADSVKGRFTISRDHAKNTVYFQMNSMKPEYTAVYYCAADSVLDRPVLYLGPWYLGDYWGQGTLVTVSS | low polyreactivity
QDQHVESGGGLDQAGGSLRLSCAASGRTIRSYAMGGYRPAPRKESELVAAISSRGGNTYYADSVKGRFTISRDNAKYTVYLQMNSLKPEDTAVYYSNRVRYGVPLIVGDDYWGQGTQVTVSS | high polyreactivity
QDQHVESGGGLVQAGCSLRLSCAASGSIFSWNAMGWYRQAPGKERELVAAIRWDTGSTYYADSVKVRFTISRDKAKNTVYLQMNRLKPEDTAVYYCAADLFDCQLIDGFAVVTYGYWGQGTQVTVSS | low polyreactivity
QDQHVESGGGLVQAGGRLRLICAASGGNFTKNAMGWYRQAPGKERELVAGISRTGGNTYYADSVKGRFTISRDNAKNTVYLQMNSLKPDDTAVYYCNALYGGPHRLRYDYWGQGTQVTVSS | low polyreactivity
QDQHVESGGGLVQAGGSLRLICAASGSIFIANAMGWYRQAPGKERELVAAITLNGGSTYYADSVKGRFTISRDNAKNTVYLQMNSLKPEDTAVYYCAADWVWVAPQYWFVEYDYWGQGTQVTVSS | low polyreactivity
QDQHVESGGGLVQAGGSLRLSCAAPGITFYPYDMGWYRQAPGKERELVASISRSGGSTYYADSVKGRFTISRDNAKNTVYLQMNSLKPEDTAVYYCNAYSTRGMYSWGQGTQVTVSS | high polyreactivity
QDQHVESGGGLVQAGGSLRLSCAASGFTFSDYALGWYRQAPGKERELVAAISTRGSSTYYADSVKGRFTISRDNAKNTVYLHLNSLKQDYTAVSYCNAVGSYSGYYYWGQGTHVTVSS | high polyreactivity
QDQHVESGGGLVQAGGSLRLSCAASGRIFFHNAMGWSRQAPGKERELVAAIRSSTGSTYYADSVKGRFTISRDNAKNTVYLQMNSLKPEDTAVYYCARYAYANAYYGKSYWMGYWGQGTQVTVSS | high polyreactivity
QDQHVESGGGLVQAGGSLRLSCAASGSTFPTNAMGWYRQAPGKERELVADITIRGGGTSYADSVKGRFTISRDNAKNTVYLQMNSLKPEDTEVYYCARSKSTELKRLLYDSWGQGTQVTVSS | low polyreactivity
QDQHVESGGGLVQAGGSLRLSCAATGNIFRYYTMGWYRQAPRKERELVAAISWNGGSTYYADSVKGRFTISRDNAKNTVYLQMNSLKPEDTAVYYCNAVQYYEFDYWGQGTQVTVSS | low polyreactivity
QDQHVESGGGLVQAGGSLRLSCDASGRTFRKNAMGSYRQARGKERELVAAISWSGDSTYYADSVKGRFTISRDNAKNTVYLQMNSLKPEDSAVYYCAADSRYHFYYWRQGTQVTVSS | high polyreactivity
QDQHVESGGGLVQAGGSLRLSIAASASTIGFNAMGWYRQAPGKERELVAAITFSGGTTYYADSVKGRFTISRDNAKNTVYFQMNSLKPEDTAVYYCNADWWYQYSGPFAPWGEDYWGQGTQVTVSS | low polyreactivity
QDQHVESVGGLVQAGGRLRLSSAASGLIFFDSPMVSDRQAPGKERELVAAISTTGGSTYYADSVKGRCTISRDNAKNSVYLEMNSLKPEDTAVYYCNARFVHHSWGTNYYWGQGTQVTVSS | high polyreactivity

Sequence | polyreactivity (PSR sort gate)
QDQHVESVGGLVQAGGSLRLSCAASGRTFAWNAMGWYRQAPGKERELVAVITSGGSTNYADSVKGRFTISRDNAKNTVYLQMKSLKPEDTALYYCAAGHSWVYGYDYWGQGTQVTVSS | low polyreactivity
QDQLEDSGGGLVQAGGSLRLICAASGSIFDTYAMGWYRQAPGKERELVATISWSGDSTYYADSVKGRFTISRDNAKNTVYLQLNSLKPEDTAVYYCAATTDALVGRPRYDYWGQGTQVTVSS | low polyreactivity
QDQLGESGGGLVQAGGSLRLSCAASGRSFTYYTMGWYRQAPGKERELVATINNSGGSTYYADSVKGRFTISRDNAKNTVYLQMNSLKPEDTAVYYCAKVLGLPYGAPRSIFVEWEMDYWGQGTQVTVSS | low polyreactivity
QDQLLESGGGLVQAGGSLRISCAASGRTIIRNAMGWSRQAPGKERELVAAITSGGSTNYADSVKGRFTISRDNAKNTVYLQMNSLKPEDTAVYYCAARYGSQYKHRFYYWGQGTQVTVSS | high polyreactivity
QDQLQESGGGLVQAGGSLRLSCAASGRIIYGYAMGWYRQAPGKERELVAAITATYYADSVKGRFTISRDNAKNTVYLQMNSLKPEDTAVYYCNAYLSPKQPLSPPDPTFEGGYWGQGTQVTVSS | low polyreactivity
QDQLVDSGGGLVQAGGSLRLSCAASGIIFYRYAMGWYRQAPGKERELVATITASGGRTYYADSVKGRFTISRDNAKNTVYLQMNSLKPEDTAVYYCAAVSSYRLYSDYGYWRQGTQVTVSS | high polyreactivity
QDQLVDSGGGLVQAGGSLRLSCAASGLSFDLYDMGWYRQAPGKERELVAAIDWSATRTYYADSVKGRFTISRDNAKNTVYLQMNSLKPEDPAVYYCNAEAVYEYWIYDYWGQGTQVTLSS | high polyreactivity
QDQLVDSGGGLVQAGGSLRLSSAASGFSYGGYAMGWYRQAPGKERELVAAISSGGGTTYADSVKGRFTISRDNAKYTVYLQMNSLKPEDTAVYYCAAVTRDYRNDRRRQRCYYWGQGTQVTVSS | high polyreactivity
QDQLVEAGGGLVQAGGSLRLSCAASGFTFYPYAMGWYRQAPGKERELVAAISYSGDRTYYADSVKGRFTISRDNAKNTVYLQMNSLKPEDTAVYDCVSAVHPGKYYYWGQGTQVTESS | high polyreactivity
QDQLVESAGGLVQAGGSLRLSCAASGRIFSRYAMGWYRQAPGKERELVAAITQSGTSTYYADSVKGRFTISRDIAKNTVYLQMNSLKAEDTAVYYCNAYSQYRYDYWGQGTQVTVSS | low polyreactivity
QDQLVESAGGLVQAGGSLRLSCAASGSIFTSNAMGWYRQAPGKETELVAAITSSGGSTYYADSVKGRFTISRDNAKNTVYVQMNSLKPEVTAVYYCAGAKFDLSFWLYYWGQGTQVTVSS | low polyreactivity
QDQLVESAGGLVQAGGSLRLSCAASGSTFVRNAMGWYRQEPGKERELVAAISVDGSSTYYADSVKGRFTISRDIAKNTVYLQMNSLKPEVTAVYYCNADWDYRDFYAITYDFWGQGTQVTVSS | low polyreactivity
QDQLVESAGGLVQAGGSLRLSCAATASTFHLYAMGWYRQAAGKERELVASIRWSGGSTYYADSVKGRFTISRDNAKNTVYLQMNSLKPEDTAVYYCASEAVPYWSWGRPMYYWGQGTQVTVSS | high polyreactivity
QDQLVESAGGLVQAGGSLSLSCAASGNIFVYYAMGWYRQAPGKERELVAAITSDVSTYYADSVKGRFTISRDNAKNTVYLQMNSLKPEDTAVYYCATTGYGSYVIYGGQGTQVTVSS | low polyreactivity
QDQLVESCGGLVQAGGSLRLSCASSGIIFVNYAMGWYRQAPGKERELVAAITTSGGSTYYADSVKGRFTISRDNAKNTVYLQMNCLKPEDTAVYYCAKISSLFKHVVRYDYWGQGTQVTVSS | low polyreactivity
QDQLVESGAGLVQAGRSLRLSCAASGSIFRWYAMGWYRQAPGKERELVAAISTSGGNTYYADSVKGRFTISRDNAKNTVYLEMKSLIPEDTAVYYCNALWYRSLYYRYDYWGQVTQVTVSS | high polyreactivity
QDQLVESGGALVQAGGSLRLSCAASGFTYYGNAMGWYRQAPGKERELVAAISSSGGITYYADSVKGRFTISRDNAKNTVYLQMNSLKPEDTAVYYCAAVQGTPDYEYDSWGQGTQVTVSS | low polyreactivity
QDQLVESGGCLVQAGGSLRLSCAASGSIFTDNVMGWYRQATGKERELVAAITSTGGNTYYADSVKGRFTISRDNAKNTVYLQMNSLKREDTAVYYCNKDVARYPYGKFDYWGQGTQVTVSS | low polyreactivity
QDQLVESGGCLVQAGGSLRLSCAAYGSTFYRYTMGWYRQAPGKERELVAAISRSGGRTYYADSVKGRFTLSRDNAKNTVFVQINSLKPEDTAVYYCNAEIASSAVQAQEGDYWGQGTQVTVSS | high polyreactivity
QDQLVESGGGIVQAGGSLRLSCAASGFIFSTNAMGWYRQAPGKERELVAAITGRGTNTYYADSVKGRFTISRDNAKNTVYLQMNSLKPEDTAVYYCAADNKDSEDDYWGQGTQVTVSS | high polyreactivity
QDQLVESGGGIVQAGGSLRLSCAASGFIFYTYAMGCYRQAPGKESELVAAISSRGTRTYYADSVKGRFTISRDNAKNTVFLQMNSLKPEDTAVYYCAAVSYSYEYPSFDMGYWGQGTQVTVSS | high polyreactivity
